Results taken from the supplement of paper PMC9170038.

Legend:
[1] = test system: MS2 coat protein; assay: apparent KD of MS2 coat protein, switch OFF state (with FMN for OFF switches, without FMN for ON switches); designed switch direction (-1 OFF switch, 1 ON switch): -1; higher = weaker reporter binding; conditions: FMN input: 0 or 200 uM; Eterna round: R93 (includes R88 designs)
Method in brief: (§1)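 Each design's apparent KD comes from the median of binding-curve fits to its normalised clusters. Those clusters carried RNA switches transcribed on-chip from Illumina sequencing clusters. SNAP-549-labelled MS2 coat protein was titrated onto them in twofold steps (0.7 or 1.5 nM to 3 µM; per step 0.8–1.5 h down to 10–20 min). Conditions were 100 mM Tris-HCl pH 7.5, 80 mM KCl, 4 mM MgCl2, without or with constant ligand.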

[2] = test system: MS2 coat protein; assay: apparent KD of MS2 coat protein, switch ON state; designed switch direction (-1 OFF switch, 1 ON switch): -1; higher = weaker reporter binding; conditions: FMN input: 0 or 200 uM; Eterna round: R93 (includes R88 designs)
Method in brief: as §1

| Sequence | apparent KD of MS2 coat protein [1] | apparent KD of MS2 coat protein [2] |
| --- | --- | --- |
| CUCAAGUGAGGAUAUCAGUAGUAAAAAAAUAAAAUUACUACUGAGAAGGCACAUGAGGAUCACCCAUGUGCCAA [EX4 335: Super Stable 35] | 0.0152 µM | 0.0147 µM |
| CUCAAGUUAGGAUAUGGAAGAAAAGAAGAGAAAGAAAAGAACCAGAAGGAACAUGAGGAUCACCCAUGUAAGAA [EteRNA is fun!] | 0.0627 µM | 0.0581 µM |
| CUCGUGUUAGGAUAUGGAUAGCCGUUUGACGAGCGAGGGCACUAGAAGGAACAUGAGGAUCACCCAUGUAAAAA [Velema] | 0.0281 µM | 0.0294 µM |
| CUCUAGUCAGGAUAUGCAUGAAAUGAAGUGAAAGAAAAGAAGCAGAAGGGACAUGAGGAUCACCCAUGUUAGAA [EteRNA is fun!] | 0.0383 µM | 0.0296 µM |
| CUCUAGUGAGGAUAUCGAAGAAAAGAAGAGAAAGAAAAGAACGAGAAGGCACAUGAGGAUCACCCAUGUAAGAA [EteRNA is fun!] | 0.049 µM | 0.0236 µM |
| CUCUAGUUAGGAUAUCCAAGAAAAGAAAAGAAAGAAAAGAAGGAGAAGGAACAUGAGGAUCACCCAUGUAAGAA [EteRNA is fun!] | 0.0294 µM | 0.0278 µM |
| CUCUAGUUAGGAUAUGCAAGAAAAGAAGAGAAAGAAAAGAAGCAGAAGGAACAUGAGGAUCACCCAUGUAAGAA [EteRNA is fun!] | 0.0204 µM | 0.0227 µM |
| CUCUUGUCAGGAUAUCAAAGAAAAGAAAAGAAAGAAAAGAAUGAGAAGGGACAUGAGGAUCACCCAUGUAAGAA [EteRNA is fun!] | 0.0348 µM | 0.0321 µM |
| CUCUUGUGAGGAUAUCCAAGAAAAGAAAAGAAAGAAAAGAAGGAGAAGGCACAUGAGGAUCACCCAUGUAAGAA [EteRNA is fun!] | 0.0389 µM | 0.0386 µM |
| CUCUUGUGAGGAUAUCUAAGAAAAGAAGAGAAAGAAAAGAAAGAGAAGGCACAUGAGGAUCACCCAUGUAAGAA [EteRNA is fun!] | 0.0561 µM | 0.029 µM |
| CUCUUGUGAGGAUAUUCAAGAAAAGAAGAGAAAGAAAAGAAGAAGAAGGCACAUGAGGAUCACCCAUGUAAGAA [EteRNA is fun!] | 0.0308 µM | 0.025 µM |
| CUUAUGUGAGGAUAUGGUGUUGGCCACAGGGAAAAGAUCCUCCAGAAGGCACAUGAGGAUCACCCAUGUAGUGA [Jolly's Folly 29 - Jieux - Exclusion 4] | 0.16 µM | 0.069 µM |
| GAAAAACAUGAGGAUCACCCAUGUAAGGAUAUGCUAAAAAACGCAAAAAAAGCGAAUAGCAGAAGGUACAAAAG [Mat - Exclusion 1 - Eli mod - D82] | 0.0781 µM | 0.0223 µM |
| GAAAAACAUGAGGAUCACCCAUGUCAGGAUAUACAAAAUAAAAUAAAAAUAAAAUAAAGUAGAAGGGACAAAAG [Mat - Same state - Mayanna Mod - D107] | 0.049 µM | 0.0367 µM |
| GAAAAACAUGAGGAUCACCCAUGUCAGGAUAUCGAAAAAAAUAAAAAAGAAAAGAAAACGAGAAGGGACAAAAG [Mat - Same state - Mayanna Mod - D112] | 0.0471 µM | 0.0316 µM |
| GAAAAACAUGAGGAUCACCCAUGUGAGGAUAUACGAAAGUAGAAGGCACUAAAAGAAAAGAGAAGGAGAAAAGA [Meechl Ex1 R2 m2] | 0.0388 µM | 0.0199 µM |
| GAAAAGCGAGGAUAUACAGAAAAAAAAACAAAAAAAGAAAAACAUGAGGAUCACCCAUGUAGAAGGCGCAAAAA [V1] | 0.0494 µM | 0.0259 µM |
| GAAAAGGAAGGAUAUACAAAGGGACCUUAUAAAAGAAGAAGACAUGAGGAUCACCCAUGUAGAAGGUCCAGAUA [Diusanatra] | 0.0196 µM | 0.0195 µM |
| GAAAAGUCAGGAUAUACAGAUAAAAAAACGAAAAAAAAUCUGUAGAAGGGACAUGAGGAUCACCCAUGUAAAAG [Mat - Exclusion 4 - Mayanna - D101] | 0.0332 µM | 0.0473 µM |
| GAAAAGUCAGGAUAUGCAGAUAAAAAAACGAAAAAAAAUCUGCAGAAGGGACAUGAGGAUCACCCAUGUAAAAA [Mat - Exclusion 4 - Mayanna - D109] | 0.0457 µM | 0.0456 µM |
| GAAAAGUGAGGAUAUGUCAAAAGUCACAAAAGUGACAAAAGACAGAAGGCACAUGAGGAUCACCCAUGUGGAAA [Mat - Exaclusion 4 - Eli mod - D51] | 0.0384 µM | 0.0309 µM |
| GAAAAUGGAGGAUAUACGUACAUGUCAAAAGACGUGAAGGGACAUGAGGAUCACCCAUGUAGAAGGCUAAAAAG [Mat - Exclusion 2 - JL mod - D96] | 0.0154 µM | 0.101 µM |
| GAAACACAUGAGGAUCACCCAUGUCAGGAUAUGUAGAUAAAAAGAAAAUAAAAUAAAAACAGAAGGGACAAAAG [Mat - Same state - Mayanna Mod - D103] | 0.0763 µM | 0.0644 µM |

| Sequence | apparent KD of MS2 coat protein [1] | apparent KD of MS2 coat protein [2] |
| --- | --- | --- |
| GAAACUAGAGGAUAUACGAACAUGUCAAAAGACGUGAAGGGACAUGAGGAUCACCCAUGUAGAAGGCUAGAAAG [Mat - Exclusion 2 - JL mod - D100] | 0.0351 µM | 0.0395 µM |
| GAAACUAGAGGAUAUACGUACAUGUCAAAAGACGUGAAGGGACAUGAGGAUCACCCAUGUAGAAGGCUAGAAAG [Mat - Exclusion 2 - JL mod - D98] | 0.0542 µM | 0.0478 µM |
| GAAACUGGAGGAUAUACGAACAUGUCAAAAGACGUGAAGGGACAUGAGGAUCACCCAUGUAGAAGGCUAGAAAG [Mat - Exclusion 2 - JL mod - D99] | 0.0224 µM | 0.0749 µM |
| GAAACUGGAGGAUAUACGUACAUGUCAAAAGACGUGAAGGGACAUGAGGAUCACCCAUGUAGAAGGCUAGAAAG [Mat - Exclusion 2 - JL mod - D97] | 0.0219 µM | 0.0706 µM |
| GAAGAACAUGAGGAUCACCCAUGUCAGGAUAUACAGAAGGGAAUAAUAUAACCUGGAAGUAGAAGGGACAAGAA [Ex 1 May 44] | 0.0654 µM | 0.0302 µM |
| GACAUGCUAGGAUAUACAGGACAAAUUGGGCAUCCGCAUGGACAUGAGGAUCACCCAUGUAGAAGGAGUAGAAA [Inonmatixe] | 0.798 µM | 0.368 µM |
| GAGAUACAUGAGGAUCACCCAUGUGAGGAUAUCGGUUGGAGGAGGUGGAGGUUGAGUACGAGAAGGCACGGAUG [salish99-Ex1-10] | 0.0311 µM | 0.0249 µM |
| GCUGUCCUAGGAUAUACAUGAGGAUCACCCAUGUGAGAGAAAAAAGUGAGAAAGAAAAGUAGAAGGAGGGUAGG [salish99-ex3-104] | 0.0444 µM | 0.0304 µM |
| GCUGUGCUAGGAUAUACAUGAGGAUCACCCAUGUGAGAGAAAAAAGUGAGAAAGAAAAGUAGAAGGAGCGUAGG [salish99-ex3-100] | 0.0592 µM | 0.0291 µM |
| GCUUGUGAAGGAUAUACAUGAGGAUCACCCAUGUGAGAGAAAAAAGUGAGAAAGAAAAGUAGAAGGUCGUGAGG [salish99-ex3-79] | 0.037 µM | 0.0361 µM |
| GGAAAACAUGAGGAUCACCCAUGUAAGGAUAUGCAAAGGAUAUAGAAGGAAAAAAAAAGCAGAAGGUACAAAGG [salish99-ex1-20] | 0.0536 µM | 0.0265 µM |
| GGAAAGUAAGGAUAUGCGAACAAACAAACAAACAAAAGGGAACAUGAGGAUCACCCAUGUAGAAGGUGCAAACA [Exclusion 2 Three redone] | 0.0326 µM | 0.046 µM |
| GGGAAACAUGAGGAUCACCCAUGUGAGGAUAUGCUAUGGAAAAUAAAAAUAAAACAUAGCAGAAGGCAUAAAAA [Denovo 11] | 0.037 µM | 0.0306 µM |
| GGUUGGCGAGGAUAUACAUGAGGAUCACCCAUGUGAGAGAAAAAAGUGAGAAAGAAACGUAGAAGGCGCUGACG [salish99-ex3-30] | 0.824 µM | 0.0884 µM |
| GGUUGGCGAGGAUAUACAUGAGGAUCACCCAUGUGAGAGAAGAAAGUGAGGAGGAGAAGUAGAAGGCGCUGACG [salish99-ex3-20] | 0.0989 µM | 0.0514 µM |
| GUAAACCUAGGAUAUACAUGAGGAUCACCCAUGUAAAAAUUAAUAAAAAGAAAAACAAGUAGAAGGAGGUAGAU [JR_Exc003_Sub1225] | 0.0208 µM | 0.0196 µM |
| GUGAAGGAAGGAUAUACAAAGGGACGUUAUAAGAGAAGAAGACAUGAGGAUCACCCAUGUAGAAGGUCCAGAUC [Beorteesri] | 0.0435 µM | 0.0259 µM |
| GUGUACAGAGGAUAUACAUAAGCAUGGAAACAUGCAACUUCACAUGAGGAUCACCCAUGUAGAAGGCUGUACAC [Ex2: 729] | 0.0137 µM | 0.0121 µM |
| GUGUACAGAGGAUAUACAUAAGCAUGGAAACAUGCAAGAUCACAUGAGGAUCACCCAUGUAGAAGGCUGUACAC [Ex2: 738] | 0.18 µM | 0.342 µM |
| GUGUACAGAGGAUAUAUAUGAGCUAGGAAACUAGCAAGAUCACAUGAGGAUCACCCAUGUAGAAGGCUGUACAC [Ex2: 735] | 0.796 µM | 0.108 µM |
| UAGAUACAUGAGGAUCACCCAUGUGAGGAUAUCGUUUGUACUAAUCUUUUAGUAUUUUCGAGAAGGCACAUAUA [Ex1Try2_Neo] | 0.143 µM | 0.0485 µM |
| UAUAGACAUGAGGAUCACCCAUGUGAGGAUAUCAGUAACUACAAAACAUCACAUACAAUGAGAAGGCACAGAAA [JR_Exc001_Sub014] | 0.0498 µM | 0.04 µM |
